Laboratory results as given in paper PMC2854097 (Molecular Biology of the Cell, 2010).

Biological target: T1, GST-p23/Tmp21 (aa 1-219), from pEBG-p23/Tmp21 (full-length) (UniProt P49755 32-219)
T1 sequence (looked up): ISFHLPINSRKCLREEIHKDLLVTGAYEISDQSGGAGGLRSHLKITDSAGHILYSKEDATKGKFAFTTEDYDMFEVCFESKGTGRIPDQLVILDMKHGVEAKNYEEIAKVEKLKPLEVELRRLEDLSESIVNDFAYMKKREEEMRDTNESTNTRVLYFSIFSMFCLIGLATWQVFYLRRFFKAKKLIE
Experiment: pull-down

B1: HA-β2-chimaerin (full-length) (natural protein, UniProt P52757-1 1-468, looked up)
chain: MAASSNSSLSGSSVSSDAEEYQPPIWKSYLYQLQQEAPRPKRIICPREVENRPKYYGREFHGIISREQADELLGGVEGAYILRESQRQPGCYTLALRFGNQTLNYRLFHDGKHFVGEKRFESIHDLVTDGLITLYIETKAAEYISKMTTNPIYEHIGYATLLREKVSRRLSRSKNEPRKTNVTHEEHTAVEKISSLVRRAALTHNDNHFNYEKTHNFKVHTFRGPHWCEYCANFMWGLIAQGVRCSDCGLNVHKQCSKHVPNDCQPDLKRIKKVYCCDLTTLVKAHNTQRPMVVDICIREIEARGLKSEGLYRVSGFTEHIEDVKMAFDRDGEKADISANVYPDINIITGALKLYFRDLPIPVITYDTYSKFIDAAKISNADERLEAVHEVLMLLPPAHYETLRYLMIHLKKVTMNEKDNFMNAENLGIVFGPTLMRPPEDSTLTTLHDMRYQKLIVQILIENEDVLF
  fold increase in association with PMA against vehicle (densitometry): ~7 fold
